The text below walks through data of US8129345B2, “MUC1-IκB kinase complexes and their activities” (Dana-Farber Cancer Institute, Inc., priority 2006, dated 2012).

“Also recorded” adds a separate entry of the source.

Experiment [1] addresses T1, IKKβ (Homo sapiens, UniProt O14920).
T1 sequence (O14920 1-756): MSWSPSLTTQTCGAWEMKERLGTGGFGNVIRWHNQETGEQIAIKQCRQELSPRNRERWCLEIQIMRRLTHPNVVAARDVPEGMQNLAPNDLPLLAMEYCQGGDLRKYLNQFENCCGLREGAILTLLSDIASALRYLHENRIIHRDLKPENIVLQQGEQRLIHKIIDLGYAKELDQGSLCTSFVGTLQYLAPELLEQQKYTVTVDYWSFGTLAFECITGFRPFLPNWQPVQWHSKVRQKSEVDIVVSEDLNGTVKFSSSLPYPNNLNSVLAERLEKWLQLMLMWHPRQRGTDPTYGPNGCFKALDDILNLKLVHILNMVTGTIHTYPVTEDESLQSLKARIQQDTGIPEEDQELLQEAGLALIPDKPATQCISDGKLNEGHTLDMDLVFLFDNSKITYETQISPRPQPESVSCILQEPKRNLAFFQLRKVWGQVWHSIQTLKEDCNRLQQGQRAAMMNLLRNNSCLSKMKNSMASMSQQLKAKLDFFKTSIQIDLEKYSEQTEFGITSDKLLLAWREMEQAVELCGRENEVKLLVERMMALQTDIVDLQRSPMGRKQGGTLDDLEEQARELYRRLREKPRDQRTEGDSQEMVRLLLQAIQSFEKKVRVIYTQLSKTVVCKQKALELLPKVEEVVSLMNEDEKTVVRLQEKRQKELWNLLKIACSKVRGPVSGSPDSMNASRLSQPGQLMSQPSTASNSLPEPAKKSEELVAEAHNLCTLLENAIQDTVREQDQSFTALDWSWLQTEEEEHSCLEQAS
As to the kind of experiment: In vitro GST pull-down binding to IKKβ. Particulars: GST pull-down with purified proteins, immunoblot. As for the experimental part: FIG. 4B is a pair of photographs of immunoblots. Recombinantly expressed, purified GST- and GST-IKKβ proteins bound to glutathione-agarose beads were incubated with purified MUC1-CD protein. The precipitates were immunoblotted (IB) with anti-MUC1-C antibodies. Input of the GST and GST-IKKβ proteins was assessed by Coomassie blue staining. The molecular weights of proteins (as indicated on the left of the photographs) are expressed as kilodaltons (kDa).
FIG. 4C (top panel) is a schematic diagram of the amino acid sequence of (i) the MUC1-cytoplasmic domain (MUC1-CD) [amino acids 1-72; SEQ ID NO:2]; (ii) the MUC1-CD fragment [amino acids 1-45; SEQ ID NO:3]; and (iii) the MUC-CD fragment [amino acids 46-72; SEQ ID NO:4]. FIG. 4C (bottom panel) is a photograph of an immunoblot and a photograph of a Coomassie blue-stained electrophoretic gel. GST- and the indicated GST-MUC1-CD fusion proteins bound to glutathione beads were incubated with purified IKKβ. The precipitates were immunoblotted with anti-IKKβ. Input of the GST and GST-MUC1-CD fusion proteins was assessed by Coomassie blue staining. The molecular weights of proteins (as indicated on the left of the photographs) are expressed as kilodaltons (kDa).
FIG. 11A is a pair of photographs of an immunoblot and Coomassie-blue stained gel. GST and the indicated GST-MUC1-CD fusion proteins (MUC1-CD and MUC1-CD(mSRM)) bound to glutathione beads were incubated with IKKβ. The precipitates were immunoblotted (IB) with an anti-IKKβ antibody. Commassie blue staining of the gel was performed to confirm that equal amounts of GST- and GST-MUC1-CD proteins were used in the experiment. The molecular weights of proteins (as indicated on the left of the photographs) are expressed as kilodaltons (kDa).
(§1) In vitro binding assays. Purified GST-MUC1-CD (glutathione s-transferase fused to the MUC1-CD polypeptide) was cleaved with thrombin to remove the GST moiety. […] Adsorbates to glutathione-conjugated beads were analyzed by immunoblotting.
(A western blot detects proteins with antibodies after separation by electrophoresis.)

For experiment [2], the target named is IKKγ (Homo sapiens, UniProt Q9Y6K9). As to the kind of experiment: In vitro GST pull-down binding to IKKγ. Particulars: GST pull-down with purified proteins, immunoblot. As for the experimental part:
FIG. 5B is a pair of photographs of immunoblots showing an interaction between MUC1-CD and IKKγ. GST- and GST-IKKγ bound to glutathione beads were incubated with purified MUC1-CD. The precipitates were immunoblotted (IB) with anti-MUC1-C antibodies. Commassie blue staining of the gel was performed to confirm that equal amounts of GST- and GST-IKKγ were used in the experiment. The molecular weights of proteins (as indicated on the left of the photographs) are expressed as kilodaltons (kDa).
FIG. 5C is a pair of photographs of immunoblots. GST- and the indicated GST-MUC1-CD fusion proteins or fragments bound to glutathione beads were incubated with purified IKKγ. The precipitates were immunoblotted (IB) with anti-IKKγ antibody. Commassie blue staining of the gel was performed to confirm that equal amounts of GST- and GST-MUC1 proteins were used in the experiment. The molecular weights of proteins (as indicated on the left of the photographs) are expressed as kilodaltons (kDa).
FIG. 5D is a pair of photographs of immunoblots. GST and the indicated GST-IKKγ fusion proteins bound to glutathione beads were incubated with MUC1-CD. The precipitates were immunoblotted (IB) with anti-MUC1-C antibody. Commassie blue staining of the gel was performed to confirm that equal amounts of GST- and GST-IKKγ proteins were used in the experiment. The molecular weights of proteins (as indicated on the left of the photographs) are expressed as kilodaltons (kDa).
FIG. 11B is a pair of photographs of an immunoblot and Coomassie blue stained gel. GST and the indicated GST-MUC1-CD fusion proteins (MUC1-CD and MUC1-CD(mSRM)) bound to glutathione beads were incubated with IKKγ. The precipitates were immunoblotted (IB) with an anti-IKKγ antibody. Commassie blue staining of the gel was performed to confirm that equal amounts of GST- and GST-MUC1-CD proteins were used in the experiment. The molecular weights of proteins (as indicated on the left of the photographs) are expressed as kilodaltons (kDa).
(§2) In vitro binding assays. Purified GST-MUC1-CD (glutathione s-transferase fused to the MUC1-CD polypeptide) was cleaved with thrombin to remove the GST moiety. GST, GST-IKKβ (DiDonato et al. (1997) Nature 388:548-554), GST-IKKβ (1-458), GST-IKKβ (458-756), GST-IKKγ (Prajapati et al. (2002) J. Biol. Chem. 277:24331-24339), GST-IKKγ (1-196) or GST-IKKγ (197-419) were then incubated with the MUC1-CD for 1 hour at 25° C. In other experiments, GST, GST-MUC1-CD, GST-MUC1-CD(1-45) or GST-MUC1-CD(46-72) were incubated with purified IKKβ or IKKγ. Adsorbates to glutathione-conjugated beads were analyzed by immunoblotting.

Experiment [3] deals with IKKβ-IKKγ complexes (Homo sapiens, UniProt O14920+Q9Y6K9). As to the kind of experiment: In vitro association of IKKβ with GST-IKKγ in absence and presence of MUC1-CD proteins. Format: binding. Conditions: purified IKKβ and GST-IKKγ, with or without added MUC1 protein. As for the experimental part:
FIG. 7C is a series of photographs of immunoblots. GST- or GST-IKKγ bound to glutathione beads was incubated with IKKβ in the absence and presence of MUC1-CD protein. The precipitates were immunoblotted (IB) with anti-IKKβ (upper panel). Input amounts of the various proteins were assessed by immunoblotting with the indicated antibodies (lower 3 panels). The molecular weights of proteins (as indicated on the left of the photographs) are expressed as kilodaltons (kDa).
FIG. 12 is a series of photographs of immunoblots. GST, and GST-IKKγ fusion proteins bound to glutathione beads were incubated with MUC1-CD, MUC1-CD(mSRM), or IKKβ proteins as indicated. The GST-pull down precipitates were immunoblotted (IB) with antibodies specific for IKKγ (top panel), IKKβ (middle panel), or MUC1 (bottom panel) as indicated. The molecular weights of proteins (as indicated on the left of the photographs) are expressed as kilodaltons (kDa).
as §1

The target of experiment [4] is IKKβ (Homo sapiens, UniProt O14920). As to the kind of experiment: In vitro incubation of IKKβ and IKKγ with ATP, phospho-IKKβ-Ser-181 immunoblot. Particulars: MUC1 protein added to the reaction. Format: biochemical. As for the experimental part:
FIG. 13 is a series of photographs of immunoblots. GST, and GST-IKKγ fusion proteins bound to glutathione beads were incubated with MUC1-CD, MUC1-CD(mSRM), or IKKβ proteins as indicated. The GST-pull down precipitates were immunoblotted (IB) with antibodies specific for (from top to bottom) phosphor-IKKβ-Ser-181 (first panel), IKKγ (second panel), IKKβ (third panel), or MUC1 (fourth panel) as indicated. The molecular weights of proteins (as indicated on the left of the photographs) are expressed as kilodaltons (kDa).
Target sequence in this assay (Q9Y6K9 whole entry partner, one chain of several, the tested form may be a part): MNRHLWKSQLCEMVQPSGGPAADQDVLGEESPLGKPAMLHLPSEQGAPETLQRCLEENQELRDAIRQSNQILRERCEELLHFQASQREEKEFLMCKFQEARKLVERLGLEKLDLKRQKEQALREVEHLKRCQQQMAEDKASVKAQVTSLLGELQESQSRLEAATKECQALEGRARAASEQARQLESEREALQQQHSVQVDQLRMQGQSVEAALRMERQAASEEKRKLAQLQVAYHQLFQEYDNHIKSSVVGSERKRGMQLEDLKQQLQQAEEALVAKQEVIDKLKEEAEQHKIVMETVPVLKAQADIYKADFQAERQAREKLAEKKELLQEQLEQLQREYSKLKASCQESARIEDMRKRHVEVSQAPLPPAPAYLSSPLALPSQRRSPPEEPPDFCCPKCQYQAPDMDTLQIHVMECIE

In experiment [5] the target is T2, MUC1-CD (Homo sapiens, UniProt P15941).
T2 construct: the MUC1-cytoplasmic domain (MUC1-CD) [amino acids 1-72; GST (N, cleaved yes); made in house
T2 sequence (P15941 1184-1255): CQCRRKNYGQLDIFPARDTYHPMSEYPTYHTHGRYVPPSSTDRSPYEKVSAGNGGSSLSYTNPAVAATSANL
Briefly: In vitro GST pull-down of GST-IKKβ fragments with MUC1-CD. Format: binding. Particulars: GST-IKKβ (1-458) and GST-IKKβ (458-756) incubated with MUC1-CD. As for the experimental part: FIG. 4D is a pair of photographs of immunoblots. GST and the indicated GST-IKKβ fusion proteins bound to glutathione beads were incubated with MUC1-CD. The precipitates were immunoblotted with anti-MUC1-C antibody. The molecular weights of proteins (as indicated on the left of the photographs) are expressed as kilodaltons (kDa).
as §2

IKKγ, sequence (Q9Y6K9 whole entry): as the sequence (Q9Y6K9 whole entry partner, one chain of several, the tested form may be a part) above
IKKβ-IKKγ complexes, sequence (Q9Y6K9 whole entry, one chain of several): as the sequence (Q9Y6K9 whole entry partner, one chain of several, the tested form may be a part) above

For the molecule “MUC1-CD(mSRM): MUC1-CD with serine-rich motif SAGNGGSSLS mutated to AAGNGGAAAA (SEQ ID NO:14) (Mutation of the Serine rich motif from human MUC1 CD)”, the “binding to IKKβ” value in experiment [1] is “no effect”. For the same molecule, the “binding to IKKγ” value in experiment [2] is “attenuated binding to IKKγ”. For the same molecule, the “interaction between IKKβ and IKKγ” value in experiment [3] is given as “substantially less effective”. For the same molecule, the “extent of IKKβ phosphorylation on Ser-181” value in experiment [4] is given as “attenuated”.
With “MUC1-CD(1-45): fragment consisting of amino acids 1-45 (SEQ ID NO:3) of the human MUC1 CD (CQCRRKNYGQLDIFPARDTYHPMSEYPTYHTHGRYVPPSSTDRSP; listed as Homo sapiens)”, the “binding to IKKβ” value in experiment [1] was “confers the ability to bind to IKKβ; also recorded: binds to IKKβ”. Besides, the “binding to IKKγ” value in experiment [2] is “not”.
With “MUC1-CD(46-72): fragment consisting of amino acids 46-72 (SEQ ID NO:4) of the human MUC1 CD (YEKVSAGNGGSSLSYTNPAVAATSANL; listed as Homo sapiens)”, in experiment [2], the “binding to IKKγ” value is listed as “binds to IKKγ”.

B1: IKKβ (1-458): fragment of amino acids 1-458 (SEQ ID NO:7) of human IKKβ (protein, listed as Homo sapiens)
chain: MSWSPSLTTQTCGAWEMKERLGTGGFGNVIRWHNQETGEQIAIKQCRQELSPRNRERWCLEIQIMRRLTHPNVVAARDVPEGMXNLAPNDLPLLAMEYCQGGDLRKYLNQFENCCGLREGAILTLLSDIASALRYLHENRIIHRDLKPENIVLQQGEQRLIHKIIDLGYAKELDQGSLCTSFVGTLQYLAPELLEQQKYTVTVDYWSFGTLAFECITGFRPFLPNWQPVQWHSKVRQKSEVDIVVSEDLNGTVKFSSSLPYPNNLNSVLAERLEKWLQLMLMWHPRQRGTDPTYGPNGCFKALDDILNLKLVHILNMVTGTIHTYPVTEDESLQSLKARIQQDTGIPEEDQELLQEAGLALIPDKPATQCISDGKLNEGHTLDMDLVFLFDNSKITYETQISPRPQPESVSCILQEPKRNLAFFQLRKVWGQVWHSIQTLKEDCNRLQQGQRAAMMNL
modifications: not fully specified; X: residue not identified in the source
Take B1: the “binding of MUC1 to IKKβ fragments” value in experiment [5] is recorded as “MUC1 binds directly with the IKKβ N-terminal region”.
